For assay [1], the target named is T1, purified recombinant IFNAR-1 extracellular fragment (human, UniProt P17181 28-436).
T1 construct: extracellular domain; also called soluble IFNAR-1; soluble IFNAR
T1 sequence (looked up): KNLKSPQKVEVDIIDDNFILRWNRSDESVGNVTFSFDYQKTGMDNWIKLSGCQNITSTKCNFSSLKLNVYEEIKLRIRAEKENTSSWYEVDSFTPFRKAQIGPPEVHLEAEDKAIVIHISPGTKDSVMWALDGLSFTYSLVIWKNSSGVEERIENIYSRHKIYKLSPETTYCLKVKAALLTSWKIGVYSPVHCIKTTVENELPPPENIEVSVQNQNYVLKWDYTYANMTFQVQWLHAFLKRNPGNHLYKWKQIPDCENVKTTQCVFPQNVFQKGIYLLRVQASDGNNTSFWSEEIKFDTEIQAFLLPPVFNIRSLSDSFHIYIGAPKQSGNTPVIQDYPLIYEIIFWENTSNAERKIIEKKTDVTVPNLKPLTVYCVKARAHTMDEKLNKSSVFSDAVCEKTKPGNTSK
Put plainly: Biacore, IFNAR-1 extracellular fragment coupled to CM5 chip, antibody 1.75-80 nM. The protocol:
Antibodies from clones 64G12, H2K6, H2K1, H3K6, and H3K1 were assayed by Biacore analysis (Biacore AB, Uppsala, Sweden) to determine binding kinetics. Purified recombinant IFNAR-1 extracellular fragment was coupled to the CM5 sensor chip @ 600 RU. Binding was measured by adding antibody at concentrations from 1.75-80 nM at a flow rate of 20 ul/min. The binding curves were fit to a Langmuir binding model using BIAevaluation software (Biacore AB, Uppsala, Sweden).

Assay [2] addresses T2, IFNAR-1 on human cells (human, UniProt P17181 28-557).
T2 sequence (looked up): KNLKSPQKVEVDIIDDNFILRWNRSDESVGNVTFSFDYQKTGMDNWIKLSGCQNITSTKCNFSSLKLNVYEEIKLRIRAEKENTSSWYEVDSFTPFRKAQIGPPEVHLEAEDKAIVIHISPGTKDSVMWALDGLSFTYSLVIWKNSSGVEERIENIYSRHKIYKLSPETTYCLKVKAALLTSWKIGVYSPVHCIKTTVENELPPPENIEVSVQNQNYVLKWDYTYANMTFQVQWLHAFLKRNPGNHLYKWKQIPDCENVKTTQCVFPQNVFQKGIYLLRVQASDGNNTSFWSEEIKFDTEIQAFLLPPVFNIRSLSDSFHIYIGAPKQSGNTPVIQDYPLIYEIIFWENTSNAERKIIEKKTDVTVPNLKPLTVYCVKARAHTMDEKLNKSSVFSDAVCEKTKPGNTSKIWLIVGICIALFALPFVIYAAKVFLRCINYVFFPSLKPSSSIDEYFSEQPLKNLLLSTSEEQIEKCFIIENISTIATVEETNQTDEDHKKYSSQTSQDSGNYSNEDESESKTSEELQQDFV
Kind of assay: cell-based or functional assay.

Assay [3] addresses T2, IFNAR-1 on human cells. Kind of assay: cell-based or functional assay. The source holds these as a separate data set.
Assay [4] deals with T1, purified recombinant IFNAR-1 …. Kind of assay: Biacore, antibody on immobilized soluble IFNAR-1, maximal response, mean of four. The protocol: Additional combination variants heavy chain DI M3-B and light chain DI K1-C were also made. These combination variants were also tested for binding to IFNAR-1. […] Binding analysis was done by Biacore, with the antibody bound to immobilized soluble IFNAR-1. Maximal response was determined at two concentrations and values shown are mean of four determinations.

Assay [5] has the same target. Kind of assay: Biacore, response on IFNAR-1 (flow cell 2) divided by response on anti-human IgG Fc (flow cell 4). The source says:
A series of antibodies were constructed with reduced numbers of potential T-cell epitopes. These included heavy chain variants M3-A and M3-B in which residues were changed in CDR regions and DI M3 in which framework residues were altered. De-immunized light chains were also constructed termed K1-C, K1-D, K1-E and DI K1. The antibodies were expressed and purified before analysis by Biacore. A Biacore chip was used with IFNAR-1 coated on Flow cell 2 at 690 RU and anti-human IgG Fc on flow cell 4 at 5000 RU. Binding of the antibody to IFNAR-1 relative to anti-human IgG Fc was determined by the ratio of response at flow cell 2 divided by flow cell 4 (Fc2/Fc4).

Assay [6] has the same target. Kind of assay: Biacore, antibody captured on anti-human IgG Fc, soluble IFNAR 25-400 nM, flow cell 2-1 low density capture.
The target is the same in assay [7]. Put plainly: Biacore, antibody captured on anti-human IgG Fc, soluble IFNAR 25-400 nM, flow cell 4-3 higher density capture.

B1: H2K6 (antibody, V domains shown)
VH: QVTLKESGPALVKPTQTLTLTCTFSGFSLSTSGMGIGWIRQPPGKALEWLAHIWWDDDKYYNPSLKSRLTISRDTSKNQVVLTMTNMDPVDTATYYCGRNYYPYDAWFDYWGQGTLVTVS
VL: EIVLTQSPDFQSVTPKEKVTITCSASSSINSNHLHWYQQKPGQSPKLLIYRTSILASGVPSRFSGSGSGTSFTLTINSLEAEDVATYYCQQGSNIPFTFGQGTKLEIKR
notes: Full-length antibody with human IgG constant regions; also called heavy chain H2 with light chain K6
Regarding B1, the Kd in assay [1] came out at 1.3 nM.

B2: H3K1 (IgG1) (antibody, V domains shown)
VH: EVQLVESGGGLVQPGGSLRLSCAFSGFTLSTSGMGIGWVRQAPGKGLEWVAHIWWDDDKYYNPSLKSRFTISRDTSKNTVYLQMNSLRAEDTAVYYCARNYYPYDAWFDYWGQGTLVTVS
VL: DIQMTQSPSSLSASVGDRVTITCSASSSINSNHLHWYQQKPGKAPKLLIYRTSILASGVPSRFSGSGSGTSFTLTISSLQPEDFATYYCQQGSNIPFTFGQGTKVEIKR
In the case of B2, the “ISRE-RG reporter assay with IFNβ, potency against H3K1 (IgG4)” value in the assay with IFNAR-1 on human cells [2] is around 10 fold. Also, in the assay with IFNAR-1 on human cells [3], the “Cell Proliferation (Daudi) IC50, cells cultured with interferon α2b” value is 3.9 nM and the “ISRE-RG Reporter (U937) IC50, interferon α2b” value is 2.7 nM.

B3: M3 heavy chain with DI K1 light chain (antibody, human IgG4, V domains shown)
VH: EVQLLESGGGLVQPGGSLRLSCAFSGFTLSTSGMGIGWVRQAPGKGLEWVAHIWWDDDKYYNPSLKSRFTISRDTSKNTVYLQMNSLRAEDTAVYYCARNYYPYDAWFDYWGQGTLVTVS
VL: DIQMTQSPSSLSASVGDRATITCSASSSINSNHLHWYLQKPGKAPKALIYRTSILASGIPSRFSGSGSGTDFTLTISSLQPEDTATYYCQQGSNIPFTFGQGTKVEIKR
notes: also called M3 DI K1
Turning to B3, the “% response relative to H3K1” value in assay [4] came out at 25%. Further, in assay [5], the “% activity relative to H3K1” value came out at 57% and the Fc2/Fc4 was 0.17.

B4: H3K6 (antibody, V domains shown)
VH: EVQLVESGGGLVQPGGSLRLSCAFSGFTLSTSGMGIGWVRQAPGKGLEWVAHIWWDDDKYYNPSLKSRFTISRDTSKNTVYLQMNSLRAEDTAVYYCARNYYPYDAWFDYWGQGTLVTVS
VL: EIVLTQSPDFQSVTPKEKVTITCSASSSINSNHLHWYQQKPGQSPKLLIYRTSILASGVPSRFSGSGSGTSFTLTINSLEAEDVATYYCQQGSNIPFTFGQGTKLEIKR
notes: Full-length antibody with human IgG constant regions; also called heavy chain H3 with light chain K6
As for B4, in assay [1], the Kd worked out at 1.8 nM.

B5: DI M3-B K1C (h IgG1) (antibody, V domains shown)
VH: EVQLLESGGGLVQPGGSLRLSCAASGFTMSTSGMGIGWIRQTPGKGLEWVAHIWWDDDKYYNPSLKARFTISRDTSKNTLYLQMNSLRAEDTAVYYCARNYYPYDAWFDYWGQGTLVTVS
VL: DIQMTQSPSSLSASVGDRVTITCSASTSINSNHLHWYQQKPGKAPKLLIYRTSILASGVPSRFSGSGSGTSFTLTISSLQPEDFATYYCQQGSNIPFTFGQGTKVEIKR
Turning to B5, in the assay with IFNAR-1 on human cells [3], the “Cell Proliferation (Daudi) IC50, cells cultured with interferon α2b” value turned out to be 10 nM and the “ISRE-RG Reporter (U937) IC50, interferon α2b” value worked out at 4.6 nM.

B6: H2K1 (antibody, V domains shown)
VH: QVTLKESGPALVKPTQTLTLTCTFSGFSLSTSGMGIGWIRQPPGKALEWLAHIWWDDDKYYNPSLKSRLTISRDTSKNQVVLTMTNMDPVDTATYYCGRNYYPYDAWFDYWGQGTLVTVS
VL: DIQMTQSPSSLSASVGDRVTITCSASSSINSNHLHWYQQKPGKAPKLLIYRTSILASGVPSRFSGSGSGTSFTLTISSLQPEDFATYYCQQGSNIPFTFGQGTKVEIKR
notes: Full-length antibody with human IgG constant regions; also called heavy chain H2 with light chain K1
Take B6: the Kd in assay [1] was 0.8 nM.

B7: M3-B heavy chain with K1-C light chain (antibody, V domains shown)
VH: EVQLLESGGGLVQPGGSLRLSCAFSGFTLSTSGMGIGWVRQAPGKGLEWVAHIWWDDDKYYNPSLKARFTISRDTSKNTVYLQMNSLRAEDTAVYYCARNYYPYDAWFDYWGQGTLVTVS
VL: DIQMTQSPSSLSASVGDRVTITCSASTSINSNHLHWYQQKPGKAPKLLIYRTSILASGVPSRFSGSGSGTSFTLTISSLQPEDFATYYCQQGSNIPFTFGQGTKVEIKR
notes: also called M3-B K1-C
As for B7, the “% response relative to H3K1” value in assay [4] amounted to 156%. In assay [6], the Kd was determined as 7.47 nM, the koff was found to be 4.1e-05 s⁻¹ and the kon stood at 5490 M⁻¹ s⁻¹. In assay [7], the Kd came to 7.45 nM, the koff is 4.06e-05 s⁻¹ and the kon stood at 5460 M⁻¹ s⁻¹.

B8: M3-B heavy chain with K1 light chain (antibody, human IgG4, V domains shown)
VH: EVQLLESGGGLVQPGGSLRLSCAFSGFTLSTSGMGIGWVRQAPGKGLEWVAHIWWDDDKYYNPSLKARFTISRDTSKNTVYLQMNSLRAEDTAVYYCARNYYPYDAWFDYWGQGTLVTVS
VL: DIQMTQSPSSLSASVGDRVTITCSASSSINSNHLHWYQQKPGKAPKLLIYRTSILASGVPSRFSGSGSGTSFTLTISSLQPEDFATYYCQQGSNIPFTFGQGTKVEIKR
notes: also called M3-B K1
Consider B8, for which the “% response relative to H3K1” value in assay [4] came to 117%. For the same molecule, in assay [5], the “% activity relative to H3K1” value was determined as 103% and the Fc2/Fc4 was determined as 0.31.

B9: DI M3 heavy chain with DI K1 light chain (antibody, human IgG4, V domains shown)
VH: EVQLLESGGGLVQPGGSLRLSCAASGFTMSTSGMGIGWIRQTPGKGLEWVAHIWWDDDKYYNPSLKSRFTISKDTSKNTLYLQMNSLRAEDTAVYYCARNYYPYDAWFDYWGQGTLVTVS
VL: DIQMTQSPSSLSASVGDRATITCSASSSINSNHLHWYLQKPGKAPKALIYRTSILASGIPSRFSGSGSGTDFTLTISSLQPEDTATYYCQQGSNIPFTFGQGTKVEIKR
notes: also called DI M3 DI K1
As to B9, the “% response relative to H3K1” value in assay [4] worked out at 8%. Moreover, in assay [5], the “% activity relative to H3K1” value was 20% and the Fc2/Fc4 came to 0.06.

B10: DI M3-B heavy chain with K1-C light chain (Example 3) (antibody, V domains shown)
VH: EVQLLESGGGLVQPGGSLRLSCAASGFTMSTSGMGIGWIRQTPGKGLEWVAHIWWDDDKYYNPSLKARFTISRDTSKNTLYLQMNSLRAEDTAVYYCARNYYPYDAWFDYWGQGTLVTVS
VL: DIQMTQSPSSLSASVGDRVTITCSASTSINSNHLHWYQQKPGKAPKLLIYRTSILASGVPSRFSGSGSGTSFTLTISSLQPEDFATYYCQQGSNIPFTFGQGTKVEIKR
notes: also called DIM3-B K1-C; DI M3-B K1-C
In the case of B10, in assay [4], the “% response relative to H3K1” value was 100%. Moreover, in assay [6], the Kd turned out to be 0.502 nM, the koff stood at 2.82e-06 s⁻¹ and the kon amounted to 5610 M⁻¹ s⁻¹. Also, in assay [7], the Kd is 3.53 nM, the koff worked out at 1.64e-05 s⁻¹ and the kon came to 4640 M⁻¹ s⁻¹.

B11: mouse-human chimeric antibody with 64G12 variable regions and human IgG4 kappa constant regions (antibody, V domains shown)
VH: QVTLKESGPGILKPSQTLSLTCSFSGFSLSTSGMGIGWIRQPSGKGLEWLAHIWWDDDKYYNPSLKSQLTISRDTSTNQVFLNITSVDTVDTATYYCGRNYYPYDAWFDYWGQGTLVTVS
VL: EIVLTQSPTTMAASPGEKITITCSASSSINSNHLHWYQQKPGFSPKVLIYRTSILASGVPTRFSGSGSGTSYSLTIGTMEAEDVATYYCQQGSNIPFTFGSGTELEIKR
notes: also called Chimeric IgG4; human IgG4 chimeric antibody
As for B11, the Kd in assay [1] worked out at 3.6 nM.

Values taken from patent publication US20050208041A1 (Bristol-Myers Squibb, published 2005).
